# “Also recorded” adds a separate entry of the source.
# B1: P. pyralis luciferase: existing luciferase derived from Photinus pyralis (SEQ ID NO: 33) (protein, listed as Photinus pyralis)
# chain: MEDAKNIKKGPAPFYPLEDGTAGEQLHKAMKRYALVPGTIAFTDAHIEVDITYAEYFEMSVRLAEAMKRYGLNTNHRIVVCSENSLQFFMPVLGALFIGVAVAPANDIYNERELLNSMGISQPTVVFVSKKGLQKILNVQKKLPIIQKIIIMDSKTDYQGFQSMYTFVTSHLPPGFNEYDFVPESFDRDKTIALIMNSSGSTGLPKGVALPHRTACVRFSHARDPIFGNQIIPDTAILSVVPFHHGFGMFTTLGYLICGFRVVLMYRFEEELFLRSLQDYKIQSALLVPTLFSFFAKSTLIDKYDLSNLHEIASGGAPLSKEVGEAVAKRFHLPGIRQGYGLTETTSAILITPEGDDKPGAVGKVVPFFEAKVVDLDTGKTLGVNQRGELCVRGPMIMSGYVNNPEATNALIDKDGWLHSGDIAYWDEDEHFFIVDRLKSLIKYKGYQVAPAELESILLQHPNIFDAGVAGLPDDDAGELPAAVVVLEHGKTMTEKEIVDYVASQVTTAKKLRGGVVFVDEVPKGLTGKLDARKIREILIKAKKGGKIAV
# B2: mutant luciferase (N50D and I530R): L. accensa luciferase mutant with N50D and I530R, amino acid sequence SEQ ID NO: 2 (protein, listed as Lucidina accensa)
# chain: MEEDKNILRGPAPFYPLEDGTAGEQLHRAMKRYALIPGTIAFTDAHAGVDITYSEYFEMACRLAESLKRYGLGLQHRIVVCSENSLQFFMPVVGALFIGVGVAPANDIYNERELLNSMTISQPTLVFCSRKGLQKILNVQKKLPVIQKIIILDTKEDYMGFQSMYSFVDSQLPVGFNEYDYVPDSFDRDQATALIMNSSGSTGLPKGVELNHTSVCVRFSHCRDPVYGNQIIPDTAILSVIPFHHGFGMFTTLGYLICGFRVVLMYRFEEELFLRSLQDYKIQSALLVPTLFSFFAKSTLIDKYDLSNLHEIASGGAPLAKEVGEAVAKRFNLRGIRQGYGLTETTSAVIITPEGDDKPGAVGKVVPFFSAKVVDLDTGKTLGVNQRGELCLKGPMIMKGYVNNPEATNALIDKDGWLHSGDISYWDEDGHFFIVDRLKSLIKYKGYQVPPAELESILLQHPFIFDAGVAGIPDDEAGELPAAVVVLEEGKTMTEKEIMDYVAGQVTTAKRLRGGVVFVDEVPKGLTGKRDARKIREILVKVKKTKSKL
# B3: L. Biplagiata (literature sequence): luciferase derived from L. biplagiata, sequence disclosed in the literature (Oba et al. 2010), lysine at position 249 (protein, listed as Lucidina biplagiata)
# chain: MEEDKNILRGPAAFYPLEDGTAGEQLHRAMKRYALIPGTIAFTDAHAGVNITYSEYFEMACRLAESLKRYGLGLQHRIVVCSENSLQFFMPVVGALFIGVGVAPANDIYNERELLNSMTISQPTLVFCSRKGLQKILNVQKKLPVIQKIIILDTKEDYMGFQSMYSFVDSQLPVGFNEYDYVPDSFDRDQATALIMNSSGSTGLPKGVELTHTSVCVRFSHCRDPVFGNQIIPDTAILSVIPFHHGFGKFTTLGYLICGFRVVLMYRFEEELFLRSLQDYKIQSALLVPTLFSFFAKSTLIDKYDLSNLHEIASGGAPLAKEVGEAVAKRFNLRGIRQGYGLTETTSAVIITPEGDDKPGAVGKVVPFFSAKVVDLDTGKTLGVNQRGELCLKGPMIMKGYVNNPEATNALIDKDGWLHSGDISYWDEDGHFFIVDRLKSLIKYKGYQVPPAELESILLQHPFIFDAGVAGIPDDEAGELPAAVVVLEEGKTMTEKEIMDYVAGQVTTAKRLRGGVVFVDEVPKGLTGKLDARKIREILVKAKKTKSKL
# B4: mutant luciferase (F294Y, V323L, and E354V): L. accensa luciferase mutant with F294Y, V323L and E354V, amino acid sequence SEQ ID NO: 34 (protein, listed as Lucidina accensa)
# chain: MEEDKNILRGPAPFYPLEDGTAGEQLHRAMKRYALIPGTIAFTDAHAGVNITYSEYFEMACRLAESLKRYGLGLQHRIVVCSENSLQFFMPVVGALFIGVGVAPANDIYNERELLNSMTISQPTLVFCSRKGLQKILNVQKKLPVIQKIIILDTKEDYMGFQSMYSFVDSQLPVGFNEYDYVPDSFDRDQATALIMNSSGSTGLPKGVELNHTSVCVRFSHCRDPVYGNQIIPDTAILSVIPFHHGFGMFTTLGYLICGFRVVLMYRFEEELFLRSLQDYKIQSALLVPTLFSYFAKSTLIDKYDLSNLHEIASGGAPLAKELGEAVAKRFNLRGIRQGYGLTETTSAVIITPVGDDKPGAVGKVVPFFSAKVVDLDTGKTLGVNQRGELCLKGPMIMKGYVNNPEATNALIDKDGWLHSGDISYWDEDGHFFIVDRLKSLIKYKGYQVPPAELESILLQHPFIFDAGVAGIPDDEAGELPAAVVVLEEGKTMTEKEIMDYVAGQVTTAKRLRGGVVFVDEVPKGLTGKIDARKIREILVKVKKTKSKL
# Legend:
# HeLa cell = experiment: Luminescence intensity of luciferase expressed in HeLa cell, comparison with P. pyralis luciferase (Example 3); assay type: cell-based; conditions: 2 mM D-luciferin, 25° C., 90 min after starting measurement
# Protocol: Each of the wild type luciferase derived from L. accensa, the mutant luciferase derived from L. accensa (N50D and 1530R), and the luciferase derived from P. pyralis (SEQ ID NO: 33) was expressed in a HeLa cell, and the luminescence intensity was measured and compared to each other.
# Further, since the pF9A vector contains the luciferase gene derived from Renilla reniformis as an internal control, it is possible to obtain the luminescence intensity from the luminescent gene inserted to the multicloning site as a ratio compared to the luminescence intensity emitted by the Renilla luciferase.
# Three types of plasmids obtained in such a manner described above were each subjected to gene transfection to a HeLa cell, which has been inoculated in a 24-well plate, by a lipofection method, and 24 hours later, the cells were washed with PBS. To each well of a 24-well plate, 500 μL of 2 mM D-luciferin/CO2 Independent Medium (manufactured by Invitrogen) was added and the luminescence intensity was measured for 90 min by using a Luminescensor (manufactured by ATTO Corporation) under the condition including 25° C. and 1 sec per each well. The luminescence intensity which is obtained at the time point of 90 min after starting the measurement was taken as the luminescence intensity of the wild type luciferase, the mutant luciferase, and P. pyralis luciferase. […] Subsequently, 500 μL of 10 μM coelenterazine/CO2 Independent Medium was added to each well and the luminescence intensity was measured for 30 min by using a Luminescensor under the condition including 25° C. and 1 sec per each well. The luminescence intensity obtained at five minutes after the addition of coelenterazine was taken as luminescence intensity of the Renilla luciferase, which is an internal control. Each of the luminescence intensity from the wild type luciferase, the mutant luciferase, and P. pyralis luciferase was divided by the luminescence intensity of the Renilla luciferase, and the results are illustrated as a graph illustrating the luminescence intensity of each luciferase.
# [1] = Stability against degradation: SDS-polyacrylamide gel electrophoresis of lysate of E. coli expressing each luciferase (Example 4); conditions: lysate of E. coli BL21 (DE3) CodonPlus expressing the luciferase
# Protocol: Stability against degradation was determined for the wild type luciferase derived from L. accensa in comparison with a known luciferase derived from L. biplagiata.
# The above three genes were introduced into an expression vector and expressed in E. coli. The expression was carried out in the same manner as the Example 2 except that BL21 (DE3) CodonPlus (manufactured by Stratagene Corporation) was used as E. coli strain and the cells were cultured appropriately.
# The lysate was prepared from the E. coli expressing each gene, and then subjected to SDS-polyacrylamide gel electrophoresis. It was confirmed that, as a band with the biggest size, a single band is present near 70 kDa for all three kinds of protein. […] Meanwhile, in the luciferase derived from L. biplagiata (i.e., left and right lanes), several bands with a size smaller than 70 kDa were identified.
# HeLa cells = experiment: Luminescence intensity of luciferase expressed in HeLa cells, comparison with L. biplagiata luciferase (Example 5); assay type: cell-based; conditions: 2 mM D-luciferin, 37° C., 90 min
# Text: The luminescence intensity from the light emitting reaction using the wild type luciferase derived from L. accensa (SEQ ID NO: 1) was compared to the luminescence intensity from the light emitting reaction using the luciferase derived from L. biplagiata having the literature sequence (SEQ ID NO: 30) or the luciferase derived from L. biplagiata having the cloned sequence (SEQ ID NO: 31). Further, based on the difference between the literature sequence and the cloned sequence, the amino acid residue at position 249 of the amino acid sequence of the wild type luciferase, i.e., methionine, was changed to lysine to prepare the mutant luciferase (M249K), which was then used for the intensity measurement.
# With regard to the four types of the luciferase, a nucleic acid containing a gene optimized for mammalian cell expression was given with a Kozak sequence, and then inserted between SgfI and PmeI sites within the multicloning site of pF9A CMV hRLuc neo Flexi vector (manufactured by Promega). Further, since the pF9A vector contains the luciferase gene derived from Renilla reniformis as an internal control in the vector sequence, it is possible to obtain the luminescence intensity from the luminescent gene inserted to the multicloning site as a ratio compared to the luminescence intensity emitted by the Renilla luciferase.
# Four types of luciferase plasmids obtained in such a manner described above were each subjected to gene transfection to HeLa cells inoculated in a 48-well plate by a lipofection method, and 24 hours later, the cells were washed with PBS. To each well of a 48-well plate, 500 μL of 2 mM D-luciferin/CO2 Independent Medium (manufactured by Invitrogen) was added and the luminescence intensity was measured for 90 min by using a Luminescensor (manufactured by ATTO Corporation) under the condition including 37° C. and 1 sec per each well. The luminescence intensity which is obtained at the time point of 90 min after starting the measurement was taken as the luminescence intensity of each luciferase. […] Subsequently, 500 μL of 10 μM coelenterazine/CO2 Independent Medium was added to each well and the luminescence intensity was measured for 30 min by using a Luminescensor under the condition including 37° C. and 1 sec per each well. The luminescence intensity obtained at five minutes after the addition of coelenterazine was taken as luminescence intensity of the Renilla luciferase, which is an internal control. Each of the luminescence intensities from the luciferases was divided by the luminescence intensity of the Renilla luciferase, yielding the luminescence intensity of each luciferase. The measurements were carried out multiple times for each luciferase, and the luminescence intensity was obtained as a mean value.
# [2] = Measurement of light emission spectra of purified luciferase under various pH environments; assay type: biochemical; conditions: light emission spectra at various pH
# Protocol: With use of LumiFlSpectroCapture (manufactured by ATTO Corporation) as an apparatus for measurement, to a solution of 0.1 M citric acid/0.1 M Na2HPO4 buffer (pH 5.5 to 8.0) containing 1 mM of D-luciferin, 2 mM of ATP and 4 mM of MgCl2 the purified enzyme was added at a final concentration of 1 μg/mL, and after 15 seconds of addition of the enzyme luminescence spectra was measured. The measurement results were illustrated in FIG. 1.
# After that, each of thus-prepared genes (SEQ ID NOs: 38 and 39) was introduced into pRSET-B vector according to the same method as the Example 2. This vector was transformed to E. coli JM109 (DE3) strain to express the mutant luciferase. Subsequently, the mutant luciferase was purified from E. coli. In addition, under various pH environments, the light emission spectrum was measured according to the same method as the Example 2 from a light emitting reaction catalyzed by the mutant luciferase.
# [3] = system: E. coli JM109 (DE3) strain; experiment: Temperature dependency of luminescence intensity: E. coli colonies heat treated at 55° C., CCD image (Example 7); assay type: cell-based, Escherichia coli; conditions: 55° C. for 1 hour, 0.5 mM D-luciferin spray
# Protocol: Each of the wild type luciferase gene and two kinds of the mutant gene obtained in the Example 6 was introduced into pRSET-B vector and transformed to E. coli JM109 (DE3) strain to form a colony. Thus-obtained colony was cultured and applied on a LB agar medium to form again the colony for 24 hours. After that, it was subjected to the heat treatment at 55° C. for 1 hour and kept at room temperature for 1 hour. It was then sprayed with a liquid containing 0.5 mM D-luciferin and a photographic image thereof was taken for 1 min by using a CCD camera (trade name: DP70, manufactured by Olympus Corporation).
molecule,measurement,setting,value
B1,luminescence intensity (divided by luminescence intensity of Renilla luciferase internal control),HeLa cell,6.6
B2,luminescence intensity (divided by luminescence intensity of Renilla luciferase internal control),HeLa cell,26.5
B3,stability against protein degradation (bands on stained SDS-PAGE gel),[1],stained in a smear shape in the region of 70 kDa or less
same,"luminescence intensity, mean value (divided by Renilla luciferase intensity)",HeLa cells,0.12
B4,pH environment giving the highest luminescence intensity,[2],7.4 pH
same,light emission compared to the wild type luciferase at 55° C.,[3],stronger light emission; also recorded: higher luminescence intensity
